Measured values from article PMC7877763 (2021).

Assays:
[1] = target: full length pepsinized type I collagen from mouse tail tendon (mouse, UniProt P11087 152-1207; Q01149 86-1125); experiment: SPR
[2] = target: GPR-foldon (foldon stabilized collagen model peptide containing a (GPP)5GPR(GPP)6 collagen sequence) (biotinylated (site not stated) for the BLI experiment); experiment: BLI

Chain of full length pepsinized type I collagen from mouse tail tendon (P11087 152-1207, chain 1 of 2): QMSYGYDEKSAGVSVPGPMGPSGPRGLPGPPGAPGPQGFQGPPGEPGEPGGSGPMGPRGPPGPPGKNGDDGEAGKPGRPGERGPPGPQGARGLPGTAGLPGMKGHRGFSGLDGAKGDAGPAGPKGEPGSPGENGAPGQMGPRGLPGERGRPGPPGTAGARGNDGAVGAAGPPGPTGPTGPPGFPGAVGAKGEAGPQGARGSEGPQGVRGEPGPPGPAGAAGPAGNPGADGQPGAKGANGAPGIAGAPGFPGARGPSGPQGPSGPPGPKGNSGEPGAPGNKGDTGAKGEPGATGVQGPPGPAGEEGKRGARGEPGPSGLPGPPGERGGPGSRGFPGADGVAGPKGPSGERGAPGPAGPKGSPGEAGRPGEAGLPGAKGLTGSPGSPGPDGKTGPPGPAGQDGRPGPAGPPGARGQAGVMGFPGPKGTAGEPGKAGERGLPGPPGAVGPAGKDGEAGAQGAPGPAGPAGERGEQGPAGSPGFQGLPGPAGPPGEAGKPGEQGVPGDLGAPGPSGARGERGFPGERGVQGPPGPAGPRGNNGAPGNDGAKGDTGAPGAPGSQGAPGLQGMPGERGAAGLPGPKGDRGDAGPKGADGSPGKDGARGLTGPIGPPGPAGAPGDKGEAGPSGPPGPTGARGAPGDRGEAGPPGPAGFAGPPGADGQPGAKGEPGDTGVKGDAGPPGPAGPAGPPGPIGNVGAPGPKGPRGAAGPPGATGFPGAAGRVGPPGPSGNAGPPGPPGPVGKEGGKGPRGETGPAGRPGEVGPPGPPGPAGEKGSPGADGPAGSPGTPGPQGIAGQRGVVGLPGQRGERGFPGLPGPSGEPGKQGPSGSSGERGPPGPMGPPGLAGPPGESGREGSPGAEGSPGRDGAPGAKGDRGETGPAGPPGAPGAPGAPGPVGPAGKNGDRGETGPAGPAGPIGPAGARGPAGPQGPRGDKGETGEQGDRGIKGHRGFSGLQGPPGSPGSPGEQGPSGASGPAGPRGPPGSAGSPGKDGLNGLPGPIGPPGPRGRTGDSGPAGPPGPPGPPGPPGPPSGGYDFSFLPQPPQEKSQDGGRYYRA
Chain of full length pepsinized type I collagen from mouse tail tendon (Q01149 86-1125, chain 2 of 2): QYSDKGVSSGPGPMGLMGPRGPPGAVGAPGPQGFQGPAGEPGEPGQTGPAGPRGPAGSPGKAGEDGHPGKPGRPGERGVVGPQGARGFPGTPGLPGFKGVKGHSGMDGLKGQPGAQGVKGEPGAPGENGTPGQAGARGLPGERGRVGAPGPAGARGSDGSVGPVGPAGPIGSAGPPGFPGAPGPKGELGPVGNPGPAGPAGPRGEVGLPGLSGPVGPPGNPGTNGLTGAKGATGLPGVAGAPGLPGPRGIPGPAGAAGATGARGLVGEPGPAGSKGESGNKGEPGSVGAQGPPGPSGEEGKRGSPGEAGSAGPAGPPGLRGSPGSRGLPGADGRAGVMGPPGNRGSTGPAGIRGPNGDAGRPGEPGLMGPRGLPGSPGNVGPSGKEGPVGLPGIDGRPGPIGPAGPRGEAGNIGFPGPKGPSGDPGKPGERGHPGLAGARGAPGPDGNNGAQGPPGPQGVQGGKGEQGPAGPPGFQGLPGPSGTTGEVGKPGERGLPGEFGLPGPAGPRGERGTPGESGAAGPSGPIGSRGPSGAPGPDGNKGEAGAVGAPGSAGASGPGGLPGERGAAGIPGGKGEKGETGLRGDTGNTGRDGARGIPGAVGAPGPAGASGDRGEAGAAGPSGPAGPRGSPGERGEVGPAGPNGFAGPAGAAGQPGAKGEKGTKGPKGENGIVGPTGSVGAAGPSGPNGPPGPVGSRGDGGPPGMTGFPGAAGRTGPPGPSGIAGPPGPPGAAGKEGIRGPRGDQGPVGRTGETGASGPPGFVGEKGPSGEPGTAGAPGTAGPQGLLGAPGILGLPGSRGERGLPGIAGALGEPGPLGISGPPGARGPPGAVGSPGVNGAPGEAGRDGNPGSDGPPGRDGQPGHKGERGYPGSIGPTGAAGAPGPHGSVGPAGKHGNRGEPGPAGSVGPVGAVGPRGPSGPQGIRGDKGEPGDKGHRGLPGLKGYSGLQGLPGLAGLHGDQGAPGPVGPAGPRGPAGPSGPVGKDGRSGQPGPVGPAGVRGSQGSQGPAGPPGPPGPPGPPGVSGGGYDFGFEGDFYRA

B1: recombinant canine HSP47-R222S (natural protein)
chain: LSPKAATLAERSAGLAFSLYQAMAKDQAVENILLSPVVVASSLGLVSLGGKATTASQAKAVLSAEQLRDEEVHAGLGELLRSLSNSTARNVTWKLGSRLYGPSSVSFAEDFVRSSKQHYNCEHSKINFRDKRSALQSINEWAAQTTDGKLPEVTKDVERTDGALLVNAMFFKPHWDEKFHHKMVDNSGFMVTRSYTVGVTMMHRTGLYNYYDDEKEKLQIVEMPLAHKLSSLIILMPHHVEPLERLEKLLTKEQLKIWMGKMQKKAVAISLPKGVVEVTHDLQKHLAGLGLTEAIDKNKADLSRMSGKKDLYLASVFHATAFEWDTEGNPFDQDIYGREELRSPKLFYADHPFIFLVRDTQSGSLLFIGRLVRPKGDKMRDEL
Which koff [1] does the source give for B1 here?
Its koff is 0.003 s⁻¹.

And the koff [2]?
The koff was 0.0186 s⁻¹.

B2: recombinant wild-type canine HSP47 (natural protein)
chain: LSPKAATLAERSAGLAFSLYQAMAKDQAVENILLSPVVVASSLGLVSLGGKATTASQAKAVLSAEQLRDEEVHAGLGELLRSLSNSTARNVTWKLGSRLYGPSSVSFAEDFVRSSKQHYNCEHSKINFRDKRSALQSINEWAAQTTDGKLPEVTKDVERTDGALLVNAMFFKPHWDEKFHHKMVDNRGFMVTRSYTVGVTMMHRTGLYNYYDDEKEKLQIVEMPLAHKLSSLIILMPHHVEPLERLEKLLTKEQLKIWMGKMQKKAVAISLPKGVVEVTHDLQKHLAGLGLTEAIDKNKADLSRMSGKKDLYLASVFHATAFEWDTEGNPFDQDIYGREELRSPKLFYADHPFIFLVRDTQSGSLLFIGRLVRPKGDKMRDEL
What does the source list for B2?
koff [1]: 0.011 s⁻¹; koff [2]: 0.0185 s⁻¹
